The values that follow come from patent EP1988165A1 (THE UNIVERSITY OF NORTH CAROLINA AT CHAPEL HILL, dated 2008).

For test [1], the target named is T1, CDC53 fused in-frame with the Gal4 DNA binding domain (pGBT8-CDC53) (yeast; Saccharomyces cerevisiae, UniProt P04386 1-147; Q12018 1-815). The test can be described thus: yeast two-hybrid (FIG. 5D).
Test [2] deals with T2, CUL-B (ORF YGR003w) fused in-frame with the Gal4 DNA binding domain (pGBT8) (yeast; Saccharomyces cerevisiae, UniProt P04386 1-147; P53202 1-744). The experiment in a line: yeast two-hybrid (FIG. 5D).
In test [3] the target is T3, CUL-C (ORF YJL047c) fused in-frame with the Gal4 DNA binding domain (pGBT8) (yeast; Saccharomyces cerevisiae, UniProt P04386 1-147; P47050 1-842). The experiment in a line: yeast two-hybrid (FIG. 5D).
Another test concerns the target myc-epitope tagged APC2 (mouse, UniProt Q8BZQ7 15-837, limits assumed). The experiment in a line: co-immunoprecipitation from transfected HeLa cells.
Test [4] has as its target T4, HA-epitope tagged human ROC1 (human, UniProt P62877 1-108).
T4 construct: Expressed by transfection in mammalian cells (Saos-2, HeLa, 293T); also called HA-ROC1
The test can be described thus: co-immunoprecipitation with anti-HA from [35S]-methionine labeled transfected cells (FIG. 3A).

The target in test [5] is T1, CDC53 fused in-frame with the Gal4 DNA …. The test can be described thus: yeast two-hybrid, histidine reporter (FIG. 5D).
The target in test [6] is T2, CUL-B (ORF YGR003w) fused in-frame with …. The test can be described thus: yeast two-hybrid, histidine reporter (FIG. 5D).
Test [7] deals with T3, CUL-C (ORF YJL047c) fused in-frame with …. The test can be described thus: yeast two-hybrid, histidine reporter (FIG. 5D).
The target of test [8] is T5, human ROC1 fused in-frame with the DNA activation domain of Gal4 (pGAD-ROC1) (yeast; human, UniProt P62877 1-108).
T5 construct: Yeast two-hybrid prey; also called regulator of cullins
The experiment in a line: yeast two-hybrid; library screen with mouse cullin 4A as bait and FIG. 1A.

The target in test [9] is T6, mouse APC2 fused to the Gal4 DNA binding domain (yeast; mouse, UniProt P04386 1-147; Q8BZQ7 15-837, limits assumed).
T6 construct: also called GAL4BD-APC2
The test can be described thus: yeast two-hybrid, -LWH medium with 5 mM 3-AT (FIG. 4E).

Test [10] has as its target T7, ScAPC2 fused in-frame with the GAL4 activation domain (yeast; Saccharomyces cerevisiae, UniProt Q12440 1-853).
T7 construct: also called yeast APC2
T7 sequence (looked up): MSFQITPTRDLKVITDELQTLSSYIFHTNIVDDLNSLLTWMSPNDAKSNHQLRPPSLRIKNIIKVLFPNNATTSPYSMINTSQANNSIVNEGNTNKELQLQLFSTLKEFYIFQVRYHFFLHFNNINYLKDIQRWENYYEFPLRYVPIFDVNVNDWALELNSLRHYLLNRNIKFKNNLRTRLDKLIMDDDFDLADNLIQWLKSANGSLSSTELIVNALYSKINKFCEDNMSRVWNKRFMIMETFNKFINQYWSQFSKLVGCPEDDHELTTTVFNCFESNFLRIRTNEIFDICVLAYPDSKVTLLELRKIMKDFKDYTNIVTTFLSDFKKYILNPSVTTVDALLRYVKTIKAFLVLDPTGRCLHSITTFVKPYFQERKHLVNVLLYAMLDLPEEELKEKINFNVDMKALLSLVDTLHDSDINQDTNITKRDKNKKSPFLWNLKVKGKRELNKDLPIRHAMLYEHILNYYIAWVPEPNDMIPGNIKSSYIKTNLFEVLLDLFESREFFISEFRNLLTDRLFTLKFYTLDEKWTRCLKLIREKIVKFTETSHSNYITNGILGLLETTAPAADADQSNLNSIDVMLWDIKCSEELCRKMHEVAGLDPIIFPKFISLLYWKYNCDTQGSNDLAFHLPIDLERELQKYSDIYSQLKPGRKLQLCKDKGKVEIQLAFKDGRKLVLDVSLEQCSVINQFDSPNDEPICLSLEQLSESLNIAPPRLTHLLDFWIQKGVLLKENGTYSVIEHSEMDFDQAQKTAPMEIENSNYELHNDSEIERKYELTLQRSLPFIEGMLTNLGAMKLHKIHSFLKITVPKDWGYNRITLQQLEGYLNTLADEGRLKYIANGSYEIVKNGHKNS
The experiment in a line: yeast two-hybrid (FIG. 5D).

The target in test [11] is human ROC1, untagged (endogenous in HeLa and Saos-2 cells, or in vitro translated) (human, UniProt P62877 1-108). The experiment in a line: immunopurification of ROC1 immunocomplexes from HeLa cells and protein microsequencing.
Chain of human ROC1, untagged (endogenous in HeLa and Saos-2 cells, or in vitro translated) (P62877 whole entry): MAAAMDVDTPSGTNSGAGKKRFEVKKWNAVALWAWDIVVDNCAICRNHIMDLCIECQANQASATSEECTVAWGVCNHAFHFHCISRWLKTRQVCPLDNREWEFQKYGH

Chain of myc-epitope tagged APC2 (Q8BZQ7 15-837 limits assumed): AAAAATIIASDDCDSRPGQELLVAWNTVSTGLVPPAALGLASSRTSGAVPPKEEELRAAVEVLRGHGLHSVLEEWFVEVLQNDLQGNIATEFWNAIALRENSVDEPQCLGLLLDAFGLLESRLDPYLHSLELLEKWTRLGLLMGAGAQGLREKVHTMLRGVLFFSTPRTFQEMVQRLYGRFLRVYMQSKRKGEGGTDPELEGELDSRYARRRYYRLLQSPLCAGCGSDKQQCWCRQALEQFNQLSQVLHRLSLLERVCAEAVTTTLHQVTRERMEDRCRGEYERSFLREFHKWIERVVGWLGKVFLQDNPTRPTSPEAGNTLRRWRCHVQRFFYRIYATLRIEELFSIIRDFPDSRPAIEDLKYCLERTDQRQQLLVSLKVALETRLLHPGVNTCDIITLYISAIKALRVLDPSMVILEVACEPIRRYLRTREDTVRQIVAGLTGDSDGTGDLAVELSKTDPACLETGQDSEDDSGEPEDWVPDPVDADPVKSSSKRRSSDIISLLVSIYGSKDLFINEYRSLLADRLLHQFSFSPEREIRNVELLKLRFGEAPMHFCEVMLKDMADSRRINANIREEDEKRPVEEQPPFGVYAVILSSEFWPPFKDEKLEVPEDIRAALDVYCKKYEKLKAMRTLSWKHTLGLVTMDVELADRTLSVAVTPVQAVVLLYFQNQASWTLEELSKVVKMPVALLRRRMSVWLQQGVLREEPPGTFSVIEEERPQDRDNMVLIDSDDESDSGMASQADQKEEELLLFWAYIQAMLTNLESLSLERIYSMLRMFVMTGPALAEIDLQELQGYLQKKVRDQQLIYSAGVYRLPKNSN
T5 sequence (P62877 whole entry, the tested form may be a part): as the sequence (P62877 whole entry) above
T4 sequence (P62877 whole entry): as above

B1: ScROC1 fused in-frame with the GAL4 activation domain (pGAD-ScROC1) (other, Saccharomyces cerevisiae, UniProt Q08273 1-121, looked up, not shown: large carriers)
chain: MSNEVDRMDVDEDESQNIAQSSNQSAPVETKKKRFEIKKWTAVAFWSWDIAVDNCAICRNHIMEPCIECQPKAMTDTDNECVAAWGVCNHAFHLHCINKWIKTRDACPLDNQPWQLARCGR
notes: also called yeast ROC1; ROC1p
For the molecule B1, the binding result in test [1], in test [2] and in test [3] was “binds” throughout.

B2: HA tagged human ROC2 (other, not shown: small tags and cut ends)
chain: ADVEDGEETCALASHSGSSGSTSGGDKMFSLKKWNPVAMWSWDVECDTCAICRVQVMDACLRCQAENKQEDCVVVWGECNHSFHNCCMSLWVKQNNRCPLCQQDWVVQRIGK
notes: Transfected protein migrates as a doublet; also called HA-ROC2
As for B2, the binding result with myc-epitope tagged APC2 is “no binding”.

B3: myc-epitope tagged mouse CUL4A (other, UniProt Q3TCH7 1-759, looked up, not shown: small tags and cut ends)
chain: MADEGPRKGSVSALMGRTNGLTKPAALAGGPAKPGGTGGSRKLVIKNFRDRPRLPDNYTQDTWRKLHEAVKAIQSSTSIRYNLEELYQAVENLCSHKVSPTLYKQLRQVCEDHVQAQILPFREDSLDSVLFLKKINTCWQDHCRQMIMIRSIFLFLDRTYVLQNSMLPSIWDMGLELFRNHIISDRMVQSKTIDGILLLIGRERSGEAVDRSLLRSLLSMLSDLQVYKDSFELKFLEETNCLYAAEGQRLMQDREVPEYLNHVSKRLEEEADRVITYLDHSTQKPLIACVEKQLLGEHLTAILQKGLEHLLDENRVPDLTQMYQLFSRVKGGQHALLQHWSEYIKTFGTTIVINPEKDKDMVQDLLDFKDKVDHVVEVCFQRNERFINLMKESFETFINKRPNKPAELIAKHVDSKLRAGNKEATDEELERILDKIMILFRFIHGKDVFEAFYKKDLAKRLLVGKSASVDAEKSMLSKLKHECGAAFTSKLEGMFKDMELSKDIMVHFKQHMQNQSAPGPIDLTVNILTMGYWPTYTPMEVHLPPEMVRLQEVFKTFYLGKHSGRKLQWQTTLGHAVLKADFKEGKKEFQVSLFQTLVLLMFNEGDGFSFEEIKMATGIEDSELRRTLQSLACGKARVLIKSPKGKEVEDGDKFIFNADFKHKLFRIKINQIQMKETVEEQVSTTERVFQDRQYQIDAAIVRIMKMRKTLGHNLLVSELYNQLKFPVKPGDLKKRIESLIDRDYMERDKDSPNQYHYVA
notes: also called myc-mCUL4A; cullin 4A
As for B3, the binding result in [4] was “binds”.

B4: ScAPC11 fused in-frame with the GAL4 activation domain (pGAD) (other, Saccharomyces cerevisiae, UniProt Q12157 1-165, looked up, not shown: large carriers)
chain: MKVKINEVHSVFAWSWHIPSTSDEDAANNDPIGNDEDEDVCGICRASYNGTCPSCKFPGDQCPLVIGLCHHNFHDHCIYRWLDTPTSKGLCPMCRQTFQLQKGLAINDAHVQKFVEIVSRRREEMIEEGVAEEFVDFDEPIRQNTDNPIGRQQVDTILDEDFLLR
notes: also called yeast APC11
With B4, the figures for the binding result in [5], in [6] and in [7] were “no binding”, “no binding” and “binds”, respectively.

B5: full-length mouse cullin 4A fused in frame with the DNA-binding domain of Gal4 (other, yeast;mouse, UniProt P04386 1-147, looked up)
chain: MKLLSSIEQACDICRLKKLKCSKEKPKCAKCLKNNWECRYSPKTKRSPLTRAHLTEVESRLERLEQLFLLIFPREDLDMILKMDSLQDIKALLTGLFVQDNVNKDAVTDRLASVETDMPLTLRQHRISATSSSEESSNKGQRQLTVSMADEGPRKGSVSALMGRTNGLTKPAALAGGPAKPGGTGGSRKLVIKNFRDRPRLPDNYTQDTWRKLHEAVKAIQSSTSIRYNLEELYQAVENLCSHKVSPTLYKQLRQVCEDHVQAQILPFREDSLDSVLFLKKINTCWQDHCRQMIMIRSIFLFLDRTYVLQNSMLPSIWDMGLELFRNHIISDRMVQSKTIDGILLLIGRERSGEAVDRSLLRSLLSMLSDLQVYKDSFELKFLEETNCLYAAEGQRLMQDREVPEYLNHVSKRLEEEADRVITYLDHSTQKPLIACVEKQLLGEHLTAILQKGLEHLLDENRVPDLTQMYQLFSRVKGGQHALLQHWSEYIKTFGTTIVINPEKDKDMVQDLLDFKDKVDHVVEVCFQRNERFINLMKESFETFINKRPNKPAELIAKHVDSKLRAGNKEATDEELERILDKIMILFRFIHGKDVFEAFYKKDLAKRLLVGKSASVDAEKSMLSKLKHECGAAFTSKLEGMFKDMELSKDIMVHFKQHMQNQSAPGPIDLTVNILTMGYWPTYTPMEVHLPPEMVRLQEVFKTFYLGKHSGRKLQWQTTLGHAVLKADFKEGKKEFQVSLFQTLVLLMFNEGDGFSFEEIKMATGIEDSELRRTLQSLACGKARVLIKSPKGKEVEDGDKFIFNADFKHKLFRIKINQIQMKETVEEQVSTTERVFQDRQYQIDAAIVRIMKMRKTLGHNLLVSELYNQLKFPVKPGDLKKRIESLIDRDYMERDKDSPNQYHYVA
notes: Yeast two-hybrid bait, also used for the library screen; also called mouse CUL4A; CUL4A
For B5, the binding result in test [8] was “binds”.

B6: full length human ROC2 fused in-frame with the yeast Gal4 DNA activation domain (other, not shown: large carriers)
chain: MFSLKKWNPVAMWSWDVECDTCAICRVQVMDACLRCQAENKQEDCVVVWGECNHSFHNCCMSLWVKQNNRCPLCQQDWVVQRIGK
notes: Yeast two-hybrid prey
Take B6: in test [9], the binding result is given as “no binding”.

B7: ScROC1 fused in-frame with the Gal4 DNA binding domain (pGBT8-ScROC1) (other, yeast;Saccharomyces cerevisiae, UniProt P04386 1-147, looked up)
chain: MKLLSSIEQACDICRLKKLKCSKEKPKCAKCLKNNWECRYSPKTKRSPLTRAHLTEVESRLERLEQLFLLIFPREDLDMILKMDSLQDIKALLTGLFVQDNVNKDAVTDRLASVETDMPLTLRQHRISATSSSEESSNKGQRQLTVSMSNEVDRMDVDEDESQNIAQSSNQSAPVETKKKRFEIKKWTAVAFWSWDIAVDNCAICRNHIMEPCIECQPKAMTDTDNECVAAWGVCNHAFHLHCINKWIKTRDACPLDNQPWQLARCGR
Regarding B7, in [10], the binding result is “binds”.

B8: human CUL2, endogenous in HeLa cells (other, UniProt Q13617 1-745, looked up)
chain: MSLKPRVVDFDETWNKLLTTIKAVVMLEYVERATWNDRFSDIYALCVAYPEPLGERLYTETKIFLENHVRHLHKRVLESEEQVLVMYHRYWEEYSKGADYMDCLYRYLNTQFIKKNKLTEADLQYGYGGVDMNEPLMEIGELALDMWRKLMVEPLQAILIRMLLREIKNDRGGEDPNQKVIHGVINSFVHVEQYKKKFPLKFYQEIFESPFLTETGEYYKQEASNLLQESNCSQYMEKVLGRLKDEEIRCRKYLHPSSYTKVIHECQQRMVADHLQFLHAECHNIIRQEKKNDMANMYVLLRAVSTGLPHMIQELQNHIHDEGLRATSNLTQENMPTLFVESVLEVHGKFVQLINTVLNGDQHFMSALDKALTSVVNYREPKSVCKAPELLAKYCDNLLKKSAKGMTENEVEDRLTSFITVFKYIDDKDVFQKFYARMLAKRLIHGLSMSMDSEEAMINKLKQACGYEFTSKLHRMYTDMSVSADLNNKFNNFIKNQDTVIDLGISFQIYVLQAGAWPLTQAPSSTFAIPQELEKSVQMFELFYSQHFSGRKLTWLHYLCTGEVKMNYLGKPYVAMVTTYQMAVLLAFNNSETVSYKELQDSTQMNEKELTKTIKSLLDVKMINHDSEKEDIDAESSFSLNMNFSSKRTKFKITTSMQKDTPQEMEQTRSAVDEDRKMYLQAAIVRIMKARKVLRHNALIQEVISQSRARFNPSISMIKKCIEVLIDKQYIERSQASADEYSYVA
notes: also called cullin 2
On to B8, for which the binding result in [11] is reported as “binds”.
